Source: patent US20150160214A1, “Quantitation of Cellular Adhesion Dynamics Across Immobilized Receptors Under Rheological Shear Flow” (Mayo Foundation for Medical Education and Research, priority 2013, published 2015)
Blank lines part the entries; values can stand above or below the molecule they belong to.

Experiments:
[1] = molecular target: T1, platelet GP1bα (Homo sapiens); assay: Platelet pause times and translocation velocities on immobilized A1 under shear flow, parallel-plate flow chamber (Example 1); type: cell-based; conditions: 300 μM peptide incubated with immobilized A1-1261; 66 μM in whole blood and buffer
T1 construct: perfused at low shear to enable platelets to attach to the surface immobilized domains; endogenous in cells; host or cells: platelets in citrated whole blood of healthy donors
Text: (§1) To understand the effect of the N-terminal peptide on the function of the A1-domain of vWF, the protein was expressed with (A1-1238) and without the N-terminal peptide (A1-1261). The inventor used a flow chamber to measure the dynamics of platelet interactions with A1-1238 and A1-1261. Each domain variant was immobilized on glass slides with a modified Cu^2+ chelating chemistry that enabled surface capture via the N-terminally fused histidine tag. This method ensured reproducible capture of the proteins eliminating possible structural issues associated with nonspecific immobilization on plastic or glass. The slides were completely inert to platelets. Next, 1 mL of citrated whole blood followed by Tris buffered saline was perfused at low shear to enable platelets to attach to the surface immobilized domains. After red cells were perfused away with buffer, the translocation of the remaining attached platelets over the surfaces was recorded at each shear rate and the velocities and pause times calculated from the coordinate data of each platelet on the surface as described in the methods. […] In addition, the translocation velocities were increased for A1-1238 relative to A1-1261. To determine if this N-terminal sequence could inhibit the catch bond when free in solution, the inventor incubated surface immobilized A1-1261 with excess free peptide and added the free peptide to 1 mL of whole blood and to our perfusion buffer and performed the assay.
(§2) Determination of platelet pause times. Determination of platelet pause times A Glycotech† rectangular parallel-plate flow chamber was mounted to slides with a chelated Cu 21 surface obtained from Microsurfaces Inc. # to which the A1-1261 and A1-1238 domains in TBS were immobilized by the 63His-Tag. Citrated whole blood (1 mL) obtained from informed consent of healthy donors with approval from the Baylor College of Medicine institutional review board followed by buffer was perfused through the chamber at 300s21 for A1-1261 and 700s21 for A1-1238 shear rate to attach platelets to the surface immobilized proteins using a syringe driven variable flow rate pump. The shear was increased incrementally and 1 min movies were recorded at 25 frames/s in phase contrast with 232 pixel binning on a Zeiss Axiocam MRm camera attached to a Zeiss Axio Observer D1 inverted microscope. Tracking analysis was performed using Mediacybernetics ImagePro Premier§. The resulting X-Y coordinate data for each platelet track was differentiated into instantaneous velocities using a Savitzky-Golay algorithm (Savitzky:1964) with a five data point window size and a second-order polynomial implemented into a Mathamatica notebook. These platelet tracks were retained for statistical analysis if the platelet was present for at least 1 s and travelled a total distance greater than 1 lm. Distance travelled in pixels was converted to lm given the camera pixel size=6.45 μm^2, pixel binning, and microscope magnification=400×. Pause times were determined by the amount of time (seconds) a platelets velocity was =0±0.13 μm/s, within the noise. Pause times for all platelet tracks are reported as the mean of the medians. Examples of this analysis for individual platelets and for multiple platelets are provided in the Supporting Information.
(§3) Frame by frame platelet trajectory analysis. Tracking coordinates of individual platelets in units of pixels were exported from ImagePro Premier as a text file and imported into a Mathematica notebook that calculates a Savitzky-Golay first derivative of the total distance traveled over time (Savitzky:1964). The distance was calculated from the X and Y coordinates with the following equation.
(§4) Pause times were determined from the length of time the platelet velocity remained within 0±4 pixel/sec=0.129 μm/sec as illustrated in FIG. 8B. Median pause times were calculated from velocity time profiles for all platelet tracks, stored in a list and translated to histograms for multiple platelets. […]

platelet GP1bα [2] = molecular target: T2, platelet GP1bα (Homo sapiens, UniProt P04275); assay: as above; type: cell-based; conditions: free peptide added
T2 construct: perfused at low shear to enable platelets to attach to the surface immobilized domains; endogenous in cells; host or cells: platelets in citrated whole blood of healthy donors
Text: as §1, §2, §3, §4

A1-1261 = molecular target: T3, A1-1261 (Homo sapiens, UniProt P04275); assay: Binding of free N-terminal peptide to A1-1261 from thermal unfolding enthalpy (tryptophan fluorescence); conditions: for Apparent TM of primary transition / Enthalpy of the unfolding transition ΔHT*‡: 2° Celsius/min
T3 construct: A1-1261 (amino acids D1261-P1471); made in house
Text: (§5) This would imply a specific interaction between this N-terminal sequence and the A1 domain when covalently linked in sequence. The only way to examine such a stabilization using spectroscopy was the measurement of thermal unfolding via fluorescence. Since the N-terminal peptide also contains a single tyrosine residue, the excitation wavelength was changed to λ=295 nm in order to measure tryptophan fluorescence and the effect of the peptide on the unfolding of the A1-domain was observed indirectly. Thermal scans of 2 μM A1-1261 were performed as a function of increasing amounts of the N-terminal peptide at 2° Celsius/min. […] Thermal scans were also done in the presence of a peptide with the same amino acid composition, but a scrambled sequence. The inset of FIG. 7A compares the raw fluorescence thermal scans in the presence of 300 μM scrambled and N-terminal peptides. Unfolding in the presence of excess scrambled peptide was equivalent to unfolding in the absence of either peptide. […] Fitting the enthalpy data to a simple single site binding model yields a dissociation constant of ≈46±6 μM.
(§6) Prior to all spectroscopic thermal scans, protein samples were equilibrated at 10° Celsius for 15 min to obtain a stable baseline. CD thermal scans between 10 and 95° Celsius were recorded at λ=222 nm using a protein concentration of 1 or 2 μM in a 1 cm quartz cell under moderate stirring. Scan rates were 0.5, 1.0, 1.5 and 2.0° Celsius/min. Integration time for each data point was 20 s with a 1 nm bandwidth. Fluorescence thermal scans between 10 and 95 Celsius were recorded at an emission λ=359 nm after excitation λ=280 nm or λ=295 nm using 2 μM protein in a 1 cm quartz cell with moderate stirring. Scan rates were 0.4 or 0.6, 0.9, 1.6 and 2.0° Celsius/min. At each temperature, relative fluorescence intensity was collected for 4 s and averaged. Thermal scans in the presence of N-terminal peptide at 2.0° Celsius/min were preceded by 1 h incubations at 20° Celsius with 0.02-300 μM peptide.
For the thermal unfolding studies in the presence of peptide, the inventor treated the change in enthalpy of unfolding, ΔHT*^‡ as an observable directly proportional to the degree of binding, X, because the T* was not dependent on peptide concentration.
For the simple single site binding model, A1+P<->A1P, where P is the peptide, the degree of binding is given by
where K is the binding affinity and the free peptide, [P], concentration is given in terms of the total protein, A1T, and peptide, PT, concentrations.

platelet GP1bα [3] = assay: Platelet pause times and translocation velocities on immobilized A1 under shear flow, parallel-plate flow chamber (Example 1); type: cell-based, human; conditions: 5 μM protein immobilized; as a function of shear rate
Text: as §1, §2, §3, §4

[4] = Temperature-induced unfolding by fluorescence and CD, irreversible models (Example 1); type: physicochemical
Protocol: A1-1261 and A1-1238 were thermally unfolded using intrinsic protein tyrosine and tryptophan fluorescence with an excitation λ=280 nm and emission λ=359 nm and CD monitored at λ=222 nm. […] As the scan rate increases, the midpoint of the transition (apparent TM) also increases.
Thermal transitions were analyzed in terms of the observed midpoint of the transition, apparent TM, and also by a two-state irreversible model or a three-state irreversible model as described in the Supplement and the calculated parameters are summarized in FIGS. 5A to 5D. […] If the protein unfolding was at equilibrium and reversible, this apparent TM would remain constant at all scan rates. Extrapolation of the TM to a scan rate of 0° Celsius/min provides an indication of where reversible unfolding would occur under equilibrium conditions; 50° Celsius for A1-1238 and 48° Celsius for A1-1261 from both CD and fluorescence data. For the second transition observed by fluorescence that occurs with A1-1238, the TM extrapolates to about 73° Celsius in the limit of zero scan rate. Analysis by the two-state and three-state irreversible models yields an R^2>0.99 for both fluorescence and CD and a transition temperature, T*, that is independent of the temperature scan rate. In addition, the enthalpies of the transitions are independent of scan rate within experimental error FIG. 5B. FIGS. 5C and 5D show the resulting average T* and ΔHT*^‡±the standard deviation obtained from the fitting of the primary thermal transitions in FIG. 4A to 4D for CD and fluorescence and a total average for both methods. […] However, the unfolding enthalpy was statistically larger for A1-1238 (250±15 kJ/mol) than for A1-1261 (204±10 kJ/mol). The average T* and ΔHT*^‡ observed in the second fluorescence transition of A1-1238 is 89.1±2.2° Celsius and 360±14 kJ/mol.
as §6
For an irreversible two-state transition, unfolding is kinetically controlled by a first order rate constant that varies with temperature according to the Arrhenius equation (Atkins:1994). In our analysis the inventor refers to the intermediate state as the final irreversible state for all thermal transitions involving the unfolding of A1-1261 in the absence of peptide when monitored by fluoresence, CD and DSC and for A1-1238 when monitored by CD and DSC. The following equations derived below are equally valid for any two state irreversible transitions The activation energy in going from N->I is ΔG^‡=−RT ln k^‡ and the inventor expands ln k^‡ as a function of temperature in terms of Δβ=(β−β*)=(1/RT−1/RT*) using a Taylor series, where T̂* is the temperature at which ΔG^‡=0.

[5] = molecular target: T4, Recombinant human vWF A1-1261 (amino acids D1261-P1471), N-terminal truncated variant (human, UniProt P04275 1261-1471); assay: thermal unfolding of 2 µM A1-1261, tryptophan fluorescence at 359 nm (excitation 295 nm)
T4 construct: Lacks the linker residues Q1238-E1260; also called truncated A1
Text: as §5, with “indirectly.” for “indirectly. Thermal scans of 2 μM A1-1261 were performed as a function of increasing amounts of the N-terminal peptide at 2° Celsius/min.”

[6] = A1-1261 in presence of free N-terminal peptide

- Effect of peptide on unfolding enthalpy of A1-1261 (A1-1261; saturating peptide concentrations): did not change the unfolding enthalpy
Molecule: QLPTGVLGEPSDAVPTVYEVTPPG (SEQ ID NO.:2) [scrambled peptide, reference compound]
- Effect of free peptide on platelet pause times on immobilized A1-1261 [1]: did not significantly change the pause times or translocation velocities
- Effect of free peptide on platelet pause times or translocation velocities on immobilized A1-1238 (platelet GP1bα [2]): did not significantly change the pause times or translocation velocities

Molecule: A1-1261: N-terminal truncated recombinant human vWF A1 domain, amino acids D1261-P1471, with N-terminal 6×His-Tag
- Platelet pause times on immobilized domain (comparison) (platelet GP1bα [3]): longer pause times than A1-1238
- Average T*, peptide-induced second fluorescence transition [4, 6]: 90.1±8.5 ° Celsius
- Average ΔHT*‡, peptide-induced second fluorescence transition [4, 6]: 142 ± 37.1 kJ/mol
- Apparent TM extrapolated to a scan rate of 0° Celsius/min, primary transition ([4]; CD and fluorescence data): 48 ° Celsius
- Transition temperature T*, primary unfolding transition ([4]; average of CD and fluorescence): 64.5±0.9 ° Celsius
- Unfolding enthalpy ΔHT*‡, primary unfolding transition ([4]; average of CD and fluorescence): 204 ± 10 kJ/mol
- Apparent TM of primary transition (A1-1261; 2 μM A1-1261, absence of peptide, excitation 295 nm): 53 ° Celsius
- Enthalpy of the unfolding transition ΔHT*‡ (A1-1261; 2 μM A1-1261, low end of N-terminal peptide titration): ≈ 197 kJ/mol
- Enthalpy of the unfolding transition ΔHT*‡ (A1-1261; 2 μM A1-1261, saturating N-terminal peptide): ≈ 242 kJ/mol
- Apparent TM of primary transition (A1-1261; 2 μM A1-1261, saturating concentrations of N-terminal peptide): 55.5 ° Celsius

- binding result [5]: no binding (tested: 300 µM)
B1: scrambled peptide (QLPTGVLGEPSDAVPTVYEVTPPG) (peptide)
peptide: H-QLPTGVLGEPSDAVPTVYEVTPPG-OH
notes: Synthetic control peptide, said to have the same amino acid composition as the N-terminal peptide in scrambled order
